# Measured values: patent US20220088180A1
# Molecular target: HLA-A*01:01 (human)
# Assay: radioligand competition, purified MHC
row,Binder,IC50 [µM]
1,KNIDGYFKIY (modifications not checked) [… (SEQ ID NO: 36)],> 70
2,IRQEEVQEL (modifications not checked) [… (SEQ ID NO: 31)],> 70
3,ELPDEFVVV (modifications not checked) [… (SEQ ID NO: 12)],> 70
4,STSAFVETV (modifications not checked) [… (SEQ ID NO: 19)],12.7
5,FAVDAAKAY (modifications not checked) [… (SEQ ID NO: 28)],> 70
6,DEFVVVTV (modifications not checked) [DEFVVVTV (SEQ ID NO: 11)],> 70
7,FASEAARVV (modifications not checked) [… (SEQ ID NO: 17)],> 70
8,SEFSSLPSY (modifications not checked) [… (SEQ ID NO: 27)],39.8
9,KAFQLTPIAV (modifications not checked) [… (SEQ ID NO: 13)],> 70
10,ELPDEFVVVTV (modifications not checked) [… (SEQ ID NO: 8)],> 70
11,APRITFGGP (modifications not checked) [… (SEQ ID NO: 42)],> 70
12,LATNNLVVM (modifications not checked) [… (SEQ ID NO: 16)],> 70
13,QLTPTWRVY (modifications not checked) [… (SEQ ID NO: 38)],> 70

# Molecular target: HLA-A*02:01 (human)
# Assay: radioligand competition, purified MHC
row,Binder,IC50 [µM]
1,KNIDGYFKIY (modifications not checked) [… (SEQ ID NO: 36)],11.8
2,IRQEEVQEL (modifications not checked) [… (SEQ ID NO: 31)],> 70
3,ELPDEFVVV (modifications not checked) [… (SEQ ID NO: 12)],0.46
4,STSAFVETV (modifications not checked) [… (SEQ ID NO: 19)],0.026
5,FAVDAAKAY (modifications not checked) [… (SEQ ID NO: 28)],> 70
6,DEFVVVTV (modifications not checked) [DEFVVVTV (SEQ ID NO: 11)],13
7,FASEAARVV (modifications not checked) [… (SEQ ID NO: 17)],0.495
8,SEFSSLPSY (modifications not checked) [… (SEQ ID NO: 27)],> 70
9,KAFQLTPIAV (modifications not checked) [… (SEQ ID NO: 13)],0.0078
10,ELPDEFVVVTV (modifications not checked) [… (SEQ ID NO: 8)],0.0016
11,APRITFGGP (modifications not checked) [… (SEQ ID NO: 42)],0.893
12,LATNNLVVM (modifications not checked) [… (SEQ ID NO: 16)],> 70
13,QLTPTWRVY (modifications not checked) [… (SEQ ID NO: 38)],> 70

# Molecular target: HLA-A*26:01 (human)
# Assay: radioligand competition, purified MHC
row,Binder,IC50 [µM]
1,KNIDGYFKIY (modifications not checked) [… (SEQ ID NO: 36)],> 70
2,IRQEEVQEL (modifications not checked) [… (SEQ ID NO: 31)],> 70
3,ELPDEFVVV (modifications not checked) [… (SEQ ID NO: 12)],6.86
4,STSAFVETV (modifications not checked) [… (SEQ ID NO: 19)],12.1
5,FAVDAAKAY (modifications not checked) [… (SEQ ID NO: 28)],0.0067
6,DEFVVVTV (modifications not checked) [DEFVVVTV (SEQ ID NO: 11)],9.55
7,FASEAARVV (modifications not checked) [… (SEQ ID NO: 17)],0.734
8,SEFSSLPSY (modifications not checked) [… (SEQ ID NO: 27)],0.875
9,KAFQLTPIAV (modifications not checked) [… (SEQ ID NO: 13)],> 70
10,ELPDEFVVVTV (modifications not checked) [… (SEQ ID NO: 8)],0.072
11,APRITFGGP (modifications not checked) [… (SEQ ID NO: 42)],> 70
12,LATNNLVVM (modifications not checked) [… (SEQ ID NO: 16)],> 70
13,QLTPTWRVY (modifications not checked) [… (SEQ ID NO: 38)],> 70

# Molecular target: HLA-B*07:02 (human)
# Assay: radioligand competition, purified MHC
row,Binder,IC50 [µM]
1,KNIDGYFKIY (modifications not checked) [… (SEQ ID NO: 36)],> 70
2,IRQEEVQEL (modifications not checked) [… (SEQ ID NO: 31)],> 70
3,ELPDEFVVV (modifications not checked) [… (SEQ ID NO: 12)],> 70
4,STSAFVETV (modifications not checked) [… (SEQ ID NO: 19)],8.86
5,FAVDAAKAY (modifications not checked) [… (SEQ ID NO: 28)],> 70
6,DEFVVVTV (modifications not checked) [DEFVVVTV (SEQ ID NO: 11)],52.8
7,FASEAARVV (modifications not checked) [… (SEQ ID NO: 17)],8.55
8,SEFSSLPSY (modifications not checked) [… (SEQ ID NO: 27)],> 70
9,KAFQLTPIAV (modifications not checked) [… (SEQ ID NO: 13)],8.6
10,ELPDEFVVVTV (modifications not checked) [… (SEQ ID NO: 8)],> 70
11,APRITFGGP (modifications not checked) [… (SEQ ID NO: 42)],0.059
12,LATNNLVVM (modifications not checked) [… (SEQ ID NO: 16)],0.055
13,QLTPTWRVY (modifications not checked) [… (SEQ ID NO: 38)],> 70

# Molecular target: HLA-B*15:01 (human)
# Assay: radioligand competition, purified MHC
row,Binder,IC50 [µM]
1,KNIDGYFKIY (modifications not checked) [… (SEQ ID NO: 36)],1.45
2,IRQEEVQEL (modifications not checked) [… (SEQ ID NO: 31)],> 70
3,ELPDEFVVV (modifications not checked) [… (SEQ ID NO: 12)],> 70
4,STSAFVETV (modifications not checked) [… (SEQ ID NO: 19)],10.4
5,FAVDAAKAY (modifications not checked) [… (SEQ ID NO: 28)],0.0027
6,DEFVVVTV (modifications not checked) [DEFVVVTV (SEQ ID NO: 11)],2.05
7,FASEAARVV (modifications not checked) [… (SEQ ID NO: 17)],2.55
8,SEFSSLPSY (modifications not checked) [… (SEQ ID NO: 27)],0.0069
9,KAFQLTPIAV (modifications not checked) [… (SEQ ID NO: 13)],1.2
10,ELPDEFVVVTV (modifications not checked) [… (SEQ ID NO: 8)],35.1
11,APRITFGGP (modifications not checked) [… (SEQ ID NO: 42)],> 70
12,LATNNLVVM (modifications not checked) [… (SEQ ID NO: 16)],0.315
13,QLTPTWRVY (modifications not checked) [… (SEQ ID NO: 38)],0.011

# Molecular target: HLA-B*18:01 (human)
# Assay: radioligand competition, purified MHC
row,Binder,IC50 [µM]
1,KNIDGYFKIY (modifications not checked) [… (SEQ ID NO: 36)],> 70
2,IRQEEVQEL (modifications not checked) [… (SEQ ID NO: 31)],> 70
3,ELPDEFVVV (modifications not checked) [… (SEQ ID NO: 12)],> 70
4,STSAFVETV (modifications not checked) [… (SEQ ID NO: 19)],> 70
5,FAVDAAKAY (modifications not checked) [… (SEQ ID NO: 28)],35.9
6,DEFVVVTV (modifications not checked) [DEFVVVTV (SEQ ID NO: 11)],< 0.0005
7,FASEAARVV (modifications not checked) [… (SEQ ID NO: 17)],49.5
8,SEFSSLPSY (modifications not checked) [… (SEQ ID NO: 27)],0.00037
9,KAFQLTPIAV (modifications not checked) [… (SEQ ID NO: 13)],3.87
10,ELPDEFVVVTV (modifications not checked) [… (SEQ ID NO: 8)],1.13
11,APRITFGGP (modifications not checked) [… (SEQ ID NO: 42)],> 70
12,LATNNLVVM (modifications not checked) [… (SEQ ID NO: 16)],> 70
13,QLTPTWRVY (modifications not checked) [… (SEQ ID NO: 38)],> 70

# Molecular target: HLA-B*44:02 (human)
# Assay: radioligand competition, purified MHC
row,Binder,IC50 [µM]
1,KNIDGYFKIY (modifications not checked) [… (SEQ ID NO: 36)],> 70
2,IRQEEVQEL (modifications not checked) [… (SEQ ID NO: 31)],> 70
3,ELPDEFVVV (modifications not checked) [… (SEQ ID NO: 12)],> 70
4,STSAFVETV (modifications not checked) [… (SEQ ID NO: 19)],> 70
5,FAVDAAKAY (modifications not checked) [… (SEQ ID NO: 28)],> 70
6,DEFVVVTV (modifications not checked) [DEFVVVTV (SEQ ID NO: 11)],2.79
7,FASEAARVV (modifications not checked) [… (SEQ ID NO: 17)],> 70
8,KAFQLTPIAV (modifications not checked) [… (SEQ ID NO: 13)],> 70
9,ELPDEFVVVTV (modifications not checked) [… (SEQ ID NO: 8)],> 70
10,APRITFGGP (modifications not checked) [… (SEQ ID NO: 42)],> 70
11,LATNNLVVM (modifications not checked) [… (SEQ ID NO: 16)],40.2
12,QLTPTWRVY (modifications not checked) [… (SEQ ID NO: 38)],> 70

# Molecular target: HLA-B*44:03 (human)
# Assay: radioligand competition, purified MHC
row,Binder,IC50 [µM]
1,KNIDGYFKIY (modifications not checked) [… (SEQ ID NO: 36)],> 70
2,IRQEEVQEL (modifications not checked) [… (SEQ ID NO: 31)],> 70
3,ELPDEFVVV (modifications not checked) [… (SEQ ID NO: 12)],> 70
4,STSAFVETV (modifications not checked) [… (SEQ ID NO: 19)],> 70
5,FAVDAAKAY (modifications not checked) [… (SEQ ID NO: 28)],> 70
6,DEFVVVTV (modifications not checked) [DEFVVVTV (SEQ ID NO: 11)],1.28
7,FASEAARVV (modifications not checked) [… (SEQ ID NO: 17)],> 70
8,KAFQLTPIAV (modifications not checked) [… (SEQ ID NO: 13)],16.4
9,ELPDEFVVVTV (modifications not checked) [… (SEQ ID NO: 8)],> 70
10,APRITFGGP (modifications not checked) [… (SEQ ID NO: 42)],> 70
11,LATNNLVVM (modifications not checked) [… (SEQ ID NO: 16)],46.5
12,QLTPTWRVY (modifications not checked) [… (SEQ ID NO: 38)],> 70

# Molecular target: HLA-B*51:01 (human)
# Assay: radioligand competition, purified MHC
row,Binder,IC50 [µM]
1,KNIDGYFKIY (modifications not checked) [… (SEQ ID NO: 36)],> 70
2,IRQEEVQEL (modifications not checked) [… (SEQ ID NO: 31)],> 70
3,ELPDEFVVV (modifications not checked) [… (SEQ ID NO: 12)],> 70
4,STSAFVETV (modifications not checked) [… (SEQ ID NO: 19)],> 70
5,FAVDAAKAY (modifications not checked) [… (SEQ ID NO: 28)],> 70
6,DEFVVVTV (modifications not checked) [DEFVVVTV (SEQ ID NO: 11)],12.8
7,FASEAARVV (modifications not checked) [… (SEQ ID NO: 17)],0.207
8,SEFSSLPSY (modifications not checked) [… (SEQ ID NO: 27)],> 70
9,KAFQLTPIAV (modifications not checked) [… (SEQ ID NO: 13)],38.7
10,ELPDEFVVVTV (modifications not checked) [… (SEQ ID NO: 8)],> 70
11,APRITFGGP (modifications not checked) [… (SEQ ID NO: 42)],> 70
12,LATNNLVVM (modifications not checked) [… (SEQ ID NO: 16)],32.7
13,QLTPTWRVY (modifications not checked) [… (SEQ ID NO: 38)],> 70
